Assay results as given in publication PMC6417941.

Target: Thermococcus kodakarensis RNA polymerase (Thermococcus kodakarensis)

B1: Spt4-Spt5 complex (complex)
chain 1: MAKERACRHCHYITTEDRCPVCGSRDLSDDWFDLVIVLDVESRIAKKLRESIPEAAKVPGKYAIRVR
chain 2: MAEGKIFTVSVTVGQETTTANLIYSKAKTYNLPLYAILSPSKVKGYIFIEAPNKSAVEEAIRGIRHAKRVLPGEIPFSEIEHFLEEKPAVSGFEPGDIVELIAGPFKGEKAKVVRVDESKDEIVVELVSSVVPIPVTVRGEYVRLISKRQKE
Binder B1 has an elongation rate on histone-bound (HTkB) templates, against no factor of 1.5 fold.
